Consider 1 molecule from patent US20240261333A1 (published 2024).

Test in all cases: co-IP, anti-FLAG, lysate of cells with N-FLAG B3GNT2; mass spectrometry
For one experiment, the target named is RPL4 (human, UniProt P36578 2-427).
The target of the next experiment is T1, LSM12 (human, UniProt Q3MHD2 2-195).
T1 construct: also called NP_689557.1

A further experiment has as its target T2, HNRNPK (human, UniProt P61978-3 1-440, limits assumed).
T2 construct: also called NP_001305115.1 (+1)

The next experiment concerns the target T3, G3BP1 (human, UniProt Q13283 2-466).
T3 construct: also called NP_005745.1

A further experiment has as its target T4, MYH11 (human, UniProt P35749-3 1-1945, limits assumed).
T4 construct: also called NP_001035202.1 (+4)

A further experiment deals with FAU (human, UniProt P62861 75-133).
The next experiment deals with T5, RBM39 (human, UniProt Q14498-3 2-508, limits assumed).
T5 construct: also called NP_001310351.1 (+3)
T5 sequence (looked up): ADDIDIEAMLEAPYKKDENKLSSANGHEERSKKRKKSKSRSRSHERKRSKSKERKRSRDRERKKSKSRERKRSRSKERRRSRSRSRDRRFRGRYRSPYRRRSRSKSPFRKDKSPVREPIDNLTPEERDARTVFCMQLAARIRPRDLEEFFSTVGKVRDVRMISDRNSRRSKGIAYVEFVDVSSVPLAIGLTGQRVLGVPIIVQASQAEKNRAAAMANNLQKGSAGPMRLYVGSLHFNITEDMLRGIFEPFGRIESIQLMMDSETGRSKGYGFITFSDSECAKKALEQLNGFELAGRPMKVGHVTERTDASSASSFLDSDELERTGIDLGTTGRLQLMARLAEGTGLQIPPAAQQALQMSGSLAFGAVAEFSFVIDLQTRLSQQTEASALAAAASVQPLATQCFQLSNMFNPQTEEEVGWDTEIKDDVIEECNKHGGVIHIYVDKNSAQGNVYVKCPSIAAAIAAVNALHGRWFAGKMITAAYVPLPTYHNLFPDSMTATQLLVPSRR

The target of another experiment is T6, LMNA (human, UniProt P02545 1-646, limits assumed).
T6 construct: also called NP_733821.1
T6 sequence (looked up): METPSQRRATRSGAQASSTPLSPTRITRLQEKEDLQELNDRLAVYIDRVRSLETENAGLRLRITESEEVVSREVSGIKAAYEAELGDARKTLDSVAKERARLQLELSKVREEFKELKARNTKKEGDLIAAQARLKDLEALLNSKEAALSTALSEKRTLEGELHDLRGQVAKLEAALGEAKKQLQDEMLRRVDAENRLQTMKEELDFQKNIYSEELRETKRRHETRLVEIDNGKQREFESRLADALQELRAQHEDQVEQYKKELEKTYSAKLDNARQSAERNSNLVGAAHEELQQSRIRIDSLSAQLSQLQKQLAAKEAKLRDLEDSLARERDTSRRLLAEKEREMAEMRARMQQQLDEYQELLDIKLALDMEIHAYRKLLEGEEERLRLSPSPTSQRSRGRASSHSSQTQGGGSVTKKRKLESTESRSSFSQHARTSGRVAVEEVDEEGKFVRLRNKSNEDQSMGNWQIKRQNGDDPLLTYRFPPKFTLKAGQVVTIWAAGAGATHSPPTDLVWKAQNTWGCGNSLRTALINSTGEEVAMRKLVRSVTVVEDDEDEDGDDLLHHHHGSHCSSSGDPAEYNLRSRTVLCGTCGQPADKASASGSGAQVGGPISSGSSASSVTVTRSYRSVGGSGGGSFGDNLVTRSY

T1 sequence (Q3MHD2 2-195 limits assumed): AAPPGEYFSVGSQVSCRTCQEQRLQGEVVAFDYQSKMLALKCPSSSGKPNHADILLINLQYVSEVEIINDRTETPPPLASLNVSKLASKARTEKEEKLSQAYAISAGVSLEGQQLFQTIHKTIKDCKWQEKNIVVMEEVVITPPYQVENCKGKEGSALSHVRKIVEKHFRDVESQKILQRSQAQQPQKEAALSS
T2 sequence (P61978 other isoform, or with tags, fused parts or gaps limits assumed): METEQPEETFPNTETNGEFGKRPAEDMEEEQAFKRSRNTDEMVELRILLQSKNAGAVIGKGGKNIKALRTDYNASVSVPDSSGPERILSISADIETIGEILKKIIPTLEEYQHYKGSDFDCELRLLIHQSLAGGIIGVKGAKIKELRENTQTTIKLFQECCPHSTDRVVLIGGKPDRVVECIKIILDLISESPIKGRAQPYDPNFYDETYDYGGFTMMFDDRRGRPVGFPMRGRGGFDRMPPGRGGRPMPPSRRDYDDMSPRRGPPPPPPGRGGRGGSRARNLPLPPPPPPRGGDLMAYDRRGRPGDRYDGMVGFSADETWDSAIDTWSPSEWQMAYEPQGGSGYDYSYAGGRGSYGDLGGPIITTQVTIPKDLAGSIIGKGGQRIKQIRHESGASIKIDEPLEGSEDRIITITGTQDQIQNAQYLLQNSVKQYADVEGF
T4 sequence (P35749 other isoform, or with tags, fused parts or gaps limits assumed): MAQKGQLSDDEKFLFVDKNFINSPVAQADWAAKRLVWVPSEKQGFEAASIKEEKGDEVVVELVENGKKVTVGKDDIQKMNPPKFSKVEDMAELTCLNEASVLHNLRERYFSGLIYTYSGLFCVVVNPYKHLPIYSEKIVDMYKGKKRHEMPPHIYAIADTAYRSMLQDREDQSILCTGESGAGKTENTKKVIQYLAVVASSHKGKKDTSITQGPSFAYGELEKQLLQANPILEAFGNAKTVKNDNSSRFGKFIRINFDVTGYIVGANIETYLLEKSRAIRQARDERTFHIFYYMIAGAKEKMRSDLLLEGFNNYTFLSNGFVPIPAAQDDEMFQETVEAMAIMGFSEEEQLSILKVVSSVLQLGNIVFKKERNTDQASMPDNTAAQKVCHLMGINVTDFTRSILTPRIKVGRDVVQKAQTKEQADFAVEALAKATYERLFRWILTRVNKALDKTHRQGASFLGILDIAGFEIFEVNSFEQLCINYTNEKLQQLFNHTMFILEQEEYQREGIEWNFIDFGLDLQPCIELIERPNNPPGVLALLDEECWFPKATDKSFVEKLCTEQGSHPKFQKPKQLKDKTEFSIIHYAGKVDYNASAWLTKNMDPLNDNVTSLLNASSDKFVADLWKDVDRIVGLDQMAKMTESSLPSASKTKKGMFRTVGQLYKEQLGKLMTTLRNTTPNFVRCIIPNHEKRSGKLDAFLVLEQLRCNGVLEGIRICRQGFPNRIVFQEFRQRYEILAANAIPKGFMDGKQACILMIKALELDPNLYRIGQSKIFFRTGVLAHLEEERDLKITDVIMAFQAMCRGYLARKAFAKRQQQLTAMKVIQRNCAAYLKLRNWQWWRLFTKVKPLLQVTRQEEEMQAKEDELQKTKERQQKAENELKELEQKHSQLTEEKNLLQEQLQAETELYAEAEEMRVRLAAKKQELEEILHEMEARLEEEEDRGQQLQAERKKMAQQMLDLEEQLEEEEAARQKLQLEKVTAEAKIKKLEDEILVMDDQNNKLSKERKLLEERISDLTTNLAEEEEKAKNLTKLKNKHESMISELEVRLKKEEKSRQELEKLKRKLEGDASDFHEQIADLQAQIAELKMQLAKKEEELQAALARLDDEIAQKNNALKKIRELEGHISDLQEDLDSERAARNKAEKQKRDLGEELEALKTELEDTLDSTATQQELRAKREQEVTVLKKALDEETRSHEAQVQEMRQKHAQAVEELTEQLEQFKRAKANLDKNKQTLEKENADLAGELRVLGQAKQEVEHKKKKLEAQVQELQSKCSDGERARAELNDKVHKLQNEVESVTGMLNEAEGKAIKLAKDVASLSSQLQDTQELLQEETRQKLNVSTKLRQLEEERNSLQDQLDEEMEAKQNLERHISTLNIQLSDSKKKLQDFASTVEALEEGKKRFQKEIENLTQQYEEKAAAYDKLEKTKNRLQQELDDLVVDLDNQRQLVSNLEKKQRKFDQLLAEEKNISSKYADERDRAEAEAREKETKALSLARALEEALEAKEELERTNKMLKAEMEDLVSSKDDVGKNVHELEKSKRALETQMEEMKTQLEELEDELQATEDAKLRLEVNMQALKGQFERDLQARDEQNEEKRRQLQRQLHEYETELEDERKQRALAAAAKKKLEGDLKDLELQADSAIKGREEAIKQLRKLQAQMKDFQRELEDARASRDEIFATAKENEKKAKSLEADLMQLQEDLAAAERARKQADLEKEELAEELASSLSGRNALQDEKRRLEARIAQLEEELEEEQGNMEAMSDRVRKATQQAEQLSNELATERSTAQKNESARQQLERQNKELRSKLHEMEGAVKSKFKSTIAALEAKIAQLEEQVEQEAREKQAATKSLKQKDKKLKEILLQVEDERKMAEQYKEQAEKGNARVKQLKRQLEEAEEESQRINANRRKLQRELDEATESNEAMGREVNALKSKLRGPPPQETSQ
T3 sequence (Q13283 2-466 limits assumed): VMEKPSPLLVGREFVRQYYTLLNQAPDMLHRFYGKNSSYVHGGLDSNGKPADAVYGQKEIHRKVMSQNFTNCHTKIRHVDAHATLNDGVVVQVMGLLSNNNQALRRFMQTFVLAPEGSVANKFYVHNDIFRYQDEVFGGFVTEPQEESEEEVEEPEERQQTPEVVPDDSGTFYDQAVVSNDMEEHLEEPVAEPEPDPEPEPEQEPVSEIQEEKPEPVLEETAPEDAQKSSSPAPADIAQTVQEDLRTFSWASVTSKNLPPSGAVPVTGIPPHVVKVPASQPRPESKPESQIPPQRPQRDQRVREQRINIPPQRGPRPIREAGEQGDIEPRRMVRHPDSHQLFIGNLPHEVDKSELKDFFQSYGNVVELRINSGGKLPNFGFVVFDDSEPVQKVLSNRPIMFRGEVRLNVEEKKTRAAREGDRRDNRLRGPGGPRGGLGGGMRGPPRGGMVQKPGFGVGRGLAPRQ

B1: N-terminal FLAG tagged B3GNT2 (enzyme, human, UniProt Q9NY97 1-397, looked up)
chain: MSVGRRRIKLLGILMMANVFIYFIMEVSKSSSQEKNGKGEVIIPKEKFWKISTPPEAYWNREQEKLNRQYNPILSMLTNQTGEAGRLSNISHLNYCEPDLRVTSVVTGFNNLPDRFKDFLLYLRCRNYSLLIDQPDKCAKKPFLLLAIKSLTPHFARRQAIRESWGQESNAGNQTVVRVFLLGQTPPEDNHPDLSDMLKFESEKHQDILMWNYRDTFFNLSLKEVLFLRWVSTSCPDTEFVFKGDDDVFVNTHHILNYLNSLSKTKAKDLFIGDVIHNAGPHRDKKLKYYIPEVVYSGLYPPYAGGGGFLYSGHLALRLYHITDQVHLYPIDDVYTGMCLQKLGLVPEKHKGFRTFDIEEKNKNNICSYVDLMLVHSRKPQEMIDIWSQLQSAHLKC
notes: Overexpressed in cells and pulled down from the lysate with mouse anti-FLAG antibody; also called N-FLAG B3GNT2; N-term FLAG; not shown: N-terminal FLAG tag
Take B1: the “co-IP mass spectrometry count” value with RPL4 turned out to be 15; with LSM12, 4; with HNRNPK, 9; in the experiment with G3BP1, 27; with MYH11, 2; with FAU, 5. Moreover, the “co-IP mass spectrometry count” value with RBM39 worked out at 4; with LMNA it was 11.
